Measurements taken from patent US12331106B2, “Anti-angiopoietin-2 antibodies that induce Tie2 activation” (Institute for Basic Science, priority 2018, dated 2025).

Assays:
[1] = tested on: tumor vessels of LLC tumor; assay: Tumor vessel normalization (CD31, PDGFRβ immunofluorescence) in LLC tumors; format: in vivo, C57BL/6 mice; details: compared with Fc or Fc+Cpt
Source text: In order to investigate the changes in tumor vessels by 2C811 antibody, we obtained frozen sections of tumor samples and performed immunofluorescence analyses by staining with a blood vessel-specific marker, CD31, and pericyte-specific marker, PDGFRβ. In detail, the tumor samples were harvested from the mice from the experiment described in Example 8, which were fixed in 4% paraformaldehyde (PFA, Merck), dehydrated in 30% sucrose (Junsei), embedded in OCT compound (Leica), and sectioned using a cryostat (Leica). The resulting frozen sections were blocked for 1 hr using a Protein Blocking Buffer (DAKO). Then the sections were stained with hamster anti-CD31 antibody (1:200, Millipore®) and rat anti-PDGFRB antibody (1:200, eBioscience™) in PBS at 4° C. for 8 hrs. After washing 3 times with PBS, the sections were stained with ALEXA FLUOR® 488-conjugated anti-hamster IgG antibody and Alexa ALEXA FLUOR® 594-conjugated anti-rat IgG antibody (1:1000, Jackson Immunoresearch) in PBS for 1 hr at room temperature. After another 3 washes with PBS, the sections were mounted in fluorescence mounting medium (DAKO) using a coverslip (Marienfeld). The stained sections were imaged using LSM880 confocal microscope (Zeiss). […]

[2] = tested on: Tie2 receptor; assay: Tie2 phosphorylation in HUVECs (immunoprecipitation/Western); format: cell-based, human; details: antibody 0.02-50 μg/ml with hAng2 1 μg/ml, 30 min
Protocol: Ang2 binds to the Tie2 receptor and acts as a weak agonist or antagonist. The anti-Ang2 antibody developed in this invention binds to Ang2 to induce Ang2-antibody complexes, further causing clustering of Tie2 receptors and consequently enhancing activation of Tie2 receptor. Experiments were conducted to analyze the effect of anti-Ang2 antibody on Tie2 phosphorylation using HUVECs.
Specifically, HUVECs (LONZA™) were cultured in EGM-2 (LONZA™) at 37° C. and 5% CO2 concentration in a 100 mm culture dish. At 80-90% confluency, the cells were changed to EBM-2 (LONZA™) medium for 2 hrs˜ 6 hrs for serum starvation. Humanized anti-Ang2 antibodies at various concentrations (0.02 μg/ml to 50 μg/ml) were mixed with hAng2 protein (1 μg/ml, R&D® Systems) for 30 min. Then, the mixtures were treated with the cultured cells and further incubated for 30 min. The cells were washed twice with cold PBS and then lysed in 1000 μl of lysis buffer (10 mM Tris-Cl pH 7.4, 150 mM NaCl, 5 mM EDTA, 10% glycerol, 1% TRITON™ X-100 (non-ionic polyoxyethylene surfactant), protease inhibitor, phosphatase inhibitor) and then lysed at 4° C. for 60 min. Cell extracts were prepared and centrifuged at 12,000 rpm for 10 min. The supernatant was quantitated by bicinchoninic (BCA) assay.
To 0.5 mg of cell lysate, 1 μg of Tie2 antibody (R&D® Systems, AF313) was added and incubated overnight at 4° C. […]

[3] = biological target: T1, hAng2 (Homo sapiens, UniProt O15123); assay: OCTET affinity of humanized anti-Ang2 antibodies against hAng2; format: binding; details: OCTET, antibody fixed on AR2G biosensor, hAng2 50-0 nM, 1:1 binding model
T1 sequence (O15123 19-496): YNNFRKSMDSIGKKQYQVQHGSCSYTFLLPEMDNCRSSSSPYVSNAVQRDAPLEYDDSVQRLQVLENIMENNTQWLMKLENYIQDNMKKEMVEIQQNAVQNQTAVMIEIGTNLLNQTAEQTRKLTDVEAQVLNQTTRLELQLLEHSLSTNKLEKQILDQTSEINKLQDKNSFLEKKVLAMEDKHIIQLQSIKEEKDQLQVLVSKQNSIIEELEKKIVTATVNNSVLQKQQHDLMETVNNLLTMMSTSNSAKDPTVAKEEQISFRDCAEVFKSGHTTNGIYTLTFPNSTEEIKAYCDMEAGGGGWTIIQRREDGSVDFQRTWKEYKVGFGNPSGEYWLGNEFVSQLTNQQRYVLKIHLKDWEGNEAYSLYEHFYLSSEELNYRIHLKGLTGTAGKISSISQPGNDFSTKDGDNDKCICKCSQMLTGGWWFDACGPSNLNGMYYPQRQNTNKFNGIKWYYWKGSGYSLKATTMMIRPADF
Protocol: The affinity of humanized anti-Ang2 antibody against hAng2 was measured using OCTET® system (ForteBio). Specifically, buffer and samples were measured in total 200 μl/well using Black 96-well plates (96 well F-type black plates, Greiner). The biosensor used for affinity measurements was hydrated for 10 min before measurement with AR2G tip (ForteBio OCTET®). After the hydration, humanized anti-Ang2 antibody was diluted in 10 mM sodium acetate, pH 6.0 buffer at a concentration of 10 μg/ml, fixed on AR2G biosensor, and blocked with 1M ethanolamine. The recombinant hAng2 was diluted to 50, 25, 12.5, 6.25, 3.125, and 0 nM with 1× kinetic buffer, and subjected to association for 300 sec and dissociation for 900 sec. For affinity measurement (KD), association rate (K-on) and dissociation rate (K-off) were analyzed by binding curve (global) and fitted to 1:1 binding model using OCTET® data analysis v9.0.0.10 program.
The affinities of humanized 2C8 antibodies to hAng2 were in Table 15.

Kdis [3]: 1.4e-05 s⁻¹
Kon [3]: 66000 M⁻¹ s⁻¹
B1: 2C8H11: humanized anti-Ang2 human IgG1 antibody from mouse 2C8; VH SEQ ID NO: 55, VL SEQ ID NO: 56 (antibody, V domains shown)
VH: QVQLVQSGAEVKKPGASVKVSCKASGYTFTSYWMHWVRQAPGQGLEWMGMIDPSDSETRLNQKFKDRVTMTRDTSTSTVYMELSSLRSEDTAVYYCARRFYYGSDWYFDVWGQGTLVTVSS
VL: DIQLTQSPSFLSASVGDRVTITCKASQDVGTAVAWYQQKPGKAPKLLIYWASTRHTGVPSRFSGSGSGTEFTLTISSLQPEDFATYYCQQYSSYPLTFGQGTKVEIK
modifications: human IgG1 constant regions; VH; VL
PDGFRβ+ pericyte coverage increase [1]: 2.4 fold
tumor blood vessel (BV) density reduction [1]: 56%
phosphorylation of Tie2 [2]: strongly induced in a dose-dependent manner
